The values that follow come from patent US20130251724A1 (GlaxoSmithKline, published 2013).

To fix the notation:
T1: Human OSM (human, UniProt P13725 26-221)
T1 construct: Recombinant human OSM; also called hOSM; human Oncostatin M
T1 sequence: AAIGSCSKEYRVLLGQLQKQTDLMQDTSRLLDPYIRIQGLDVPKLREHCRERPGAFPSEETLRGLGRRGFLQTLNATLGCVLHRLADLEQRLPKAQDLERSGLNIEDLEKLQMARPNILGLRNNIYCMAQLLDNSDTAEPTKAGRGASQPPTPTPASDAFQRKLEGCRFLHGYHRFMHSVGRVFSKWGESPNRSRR

B1: Pos 95 Ala (antibody, V domains shown)
VH: EVQLVESGGGLVQPGGSLRLSCAASGFTFSSYAMSWVRQAPGKGLEWVATISDGGSFTYYLDNVRGRFTISRDNAKNSLYLQMNSLRAEDTAVYYCARAVGHTTFWYFDVWGRGTLVTVSS
VL: DIVMTQSPDSLAVSLGERATINCRASKSVSAAGYNFMHWYQQKPGQPPKVLIYYASNLESGVPDRFSGSGSGTDFTLTISSLQAEDVAVYYCLHSREFPFTFGGGTKVEIKR
notes: the same holds for f2 to f171; also called CDRH3 D95>A
B2: Pos 99 Cys (antibody, V domains shown)
VH: B1 VH with A99D, T103C
VL: B1 VL
notes: also called CDRH3 T99>C
B3: Pos 97 Phe (antibody, V domains shown)
VH: B1 VH with A99D, G101F
VL: B1 VL
notes: also called CDRH3 G97>F
B4: Pos 100D Ala (antibody, V domains shown)
VH: B1 VH with A99D, F108A
VL: B1 VL
notes: also called CDRH3 F100D>A
B5: Pos 99 Ala (antibody, V domains shown)
VH: B1 VH with A99D, T103A
VL: B1 VL
notes: also called CDRH3 T99>A
B6: Pos 100D Gly (antibody, V domains shown)
VH: B1 VH with A99D, F108G
VL: B1 VL
notes: also called CDRH3 F100D>G
B7: Pos 98 Phe (antibody, V domains shown)
VH: B1 VH with A99D, H102F
VL: B1 VL
notes: also called CDRH3 H98>F
B8: Pos 98 Gly (antibody, V domains shown)
VH: B1 VH with A99D, H102G
VL: B1 VL
notes: also called CDRH3 H98>G
B9: Pos 102 Gly (antibody, V domains shown)
VH: B1 VH with A99D, V110G
VL: B1 VL
notes: also called CDRH3 V102>G
B10: Pos 100C Phe (antibody, V domains shown)
VH: B1 VH with A99D, Y107F
VL: B1 VL
notes: also called CDRH3 Y100C>F
B11: Pos 101 Glu (antibody, V domains shown)
VH: B1 VH with A99D, D109E
VL: B1 VL
notes: also called CDRH3 D101>E
B12: Pos 102 Ala (antibody, V domains shown)
VH: B1 VH with A99D, V110A
VL: B1 VL
notes: also called CDRH3 V102>A
B13: Pos 97 Cys (antibody, V domains shown)
VH: B1 VH with A99D, G101C
VL: B1 VL
notes: also called CDRH3 G97>C
B14: Pos 100D Asp (antibody, V domains shown)
VH: B1 VH with A99D, F108D
VL: B1 VL
notes: also called CDRH3 F100D>D
B15: Pos 102 Gln (antibody, V domains shown)
VH: B1 VH with A99D, V110Q
VL: B1 VL
notes: also called CDRH3 V102>Q
B16: Pos 101 Gly (antibody, V domains shown)
VH: B1 VH with A99D, D109G
VL: B1 VL
notes: also called CDRH3 D101>G
B17: Pos 102 Phe (antibody, V domains shown)
VH: B1 VH with A99D, V110F
VL: B1 VL
notes: also called CDRH3 V102>F
B18: Pos 96 Lys (antibody, V domains shown)
VH: B1 VH with A99D, V100K
VL: B1 VL
notes: also called CDRH3 V96>K
B19: Pos 95 His (antibody, V domains shown)
VH: B1 VH with A99H
VL: B1 VL
notes: also called CDRH3 D95>H
B20: Pos 98 Gln (antibody, V domains shown)
VH: B1 VH with A99D, H102Q
VL: B1 VL
notes: also called CDRH3 H98>Q
B21: Pos 100C Glu (antibody, V domains shown)
VH: B1 VH with A99D, Y107E
VL: B1 VL
notes: also called CDRH3 Y100C>E
B22: Pos 97 Ala (antibody, V domains shown)
VH: B1 VH with A99D, G101A
VL: B1 VL
notes: also called CDRH3 G97>A
B23: Pos 102 Pro (antibody, V domains shown)
VH: B1 VH with A99D, V110P
VL: B1 VL
notes: also called CDRH3 V102>P
B24: Pos 97 Met (antibody, V domains shown)
VH: B1 VH with A99D, G101M
VL: B1 VL
notes: also called CDRH3 G97>M
B25: Pos 95 Gly (antibody, V domains shown)
VH: B1 VH with A99G
VL: B1 VL
notes: also called CDRH3 D95>G
B26: Pos 100B Glu (antibody, V domains shown)
VH: B1 VH with A99D, W106E
VL: B1 VL
notes: also called CDRH3 W100B>E
B27: Pos 98 Ala (antibody, V domains shown)
VH: B1 VH with A99D, H102A
VL: B1 VL
notes: also called CDRH3 H98>A
B28: Pos 96 Phe (antibody, V domains shown)
VH: B1 VH with A99D, V100F
VL: B1 VL
notes: also called CDRH3 V96>F
B29: Pos 102 Leu (antibody, V domains shown)
VH: B1 VH with A99D, V110L
VL: B1 VL
notes: also called CDRH3 V102>L
B30: Pos 95 Leu (antibody, V domains shown)
VH: B1 VH with A99L
VL: B1 VL
notes: also called CDRH3 D95>L
B31: Pos 100D Glu (antibody, V domains shown)
VH: B1 VH with A99D, F108E
VL: B1 VL
notes: also called CDRH3 F100D>E
B32: Pos 95 Glu (antibody, V domains shown)
VH: B1 VH with A99E
VL: B1 VL
notes: also called CDRH3 D95>E
B33: Pos 96 Gly (antibody, V domains shown)
VH: B1 VH with A99D, V100G
VL: B1 VL
notes: also called CDRH3 V96>G
B34: Pos 95 Met (antibody, V domains shown)
VH: B1 VH with A99M
VL: B1 VL
notes: also called CDRH3 D95>M
B35: Pos 96 His (antibody, V domains shown)
VH: B1 VH with A99D, V100H
VL: B1 VL
notes: also called CDRH3 V96>H
B36: Pos 95 Gln (antibody, V domains shown)
VH: B1 VH with A99Q
VL: B1 VL
notes: also called CDRH3 D95>Q
B37: Pos 100C Gly (antibody, V domains shown)
VH: B1 VH with A99D, Y107G
VL: B1 VL
notes: also called CDRH3 Y100C>G

Positions count from the first letter of the chain named. Names and notes keep the numbering of the source.

In this assay the target is T1, Human OSM. The assay can be described thus: SPR (ProteOn XPR36 or Biacore T100), captured supernatant, OSM as analyte. How it is done:
The initial kinetic analyses for the CDRH3 screen were carried out on the ProteOn XPR36 (Biorad Laboratories) and certain supernatants were selected for more accurate kinetic analysis on the BiaCore T100.
For the ProteOn analysis, anti-human IgG (GE Healthcare/Biacore BR-1008-39) was coupled to a GLM chip (Biorad Laboratories 176-5012) by primary amine coupling. The CDRH3 variants were captured directly on to this surface and recombinant human OSM was passed over the captured antibody surface at 256, 64, 16, 4 and 1 nM, with a buffer injection alone (i.e. 0 nM) used to double reference the binding curves. Following the OSM binding event, the capture surfaces were regenerated: with 3M MgCl₂ the regeneration removed the previously captured antibody ready for another cycle of capture and binding analysis. The data was then fitted to the 1:1 model (with mass transport) inherent to the ProteOn analysis software. The run was carried out using HBS-EP (Biacore/GE-Healthcare BR-1006-69) and the analysis temperature was 25° C.
A similar method was used for analysis of constructs using the Biacore T100, anti-human IgG (GE Healthcare/Biacore BR-1008-39) was coupled to a CM5 chip (GE Healthcare/Biacore BR-1006-68) by primary amine coupling, antibodies were captured on this surface and recombinant human OSM was passed over the captured antibody surface at 256, 64, 16, 4 and 1 nM, with a buffer injection alone (i.e. 0 nM) used to double reference the binding curves. Regeneration was by using pulses of 3M 3M MgCl₂ or 100 mM phosphoric acid or using both reagents. The data was fitted to the 1:1 model inherent to the Biacore T100 analysis software. The run was carried out using HBS-EP (Biacore/GE-Healthcare BR-1006-69) and the analysis temperature was 25° C.
In general terms: In SPR one partner is held on a chip, and binding of the other changes the refractive index at the surface.
By Kd is commonly meant the equilibrium constant for the complex coming apart. Low readings indicate higher affinity, high ones lower affinity. On to B1, for which the affinity, expressed as Kd, was 0.576 nM.
With B2 the figure was 0.708 nM.
With B3 the figure was 0.637 nM.
With B4 the figure was 0.869 nM; with B5, 0.541 nM; with B6, 0.661 nM.
Turning to B7, the Kd amounted to 0.325 nM.
As for B8, the figure is 1.11 nM.
For the molecule B9, the Kd came out at 0.406 nM.
B10 registered a Kd of 0.365 nM.
On to B11, for which the Kd came to 0.426 nM.
The molecule B12 had a Kd of 0.338 nM.
Take B13: binding was characterised by a dissociation constant (Kd) of 0.651 nM.
As to B14, the Kd stood at 0.672 nM.
In the case of B15, the Kd is 0.337 nM.
With B16 the figure was 0.71 nM.
B17: binding was put at a Kd of 0.425 nM.
The molecule B18 gave a dissociation constant (Kd) of 0.671 nM.
B19: binding was put at a Kd of 0.499 nM.
As for B20, the figure is 0.729 nM; as for B21, 0.482 nM; as for B22, 0.486 nM.
For B23, the affinity, expressed as Kd, was 0.411 nM.
Turning to B24, binding was put at a Kd of 0.809 nM.
With B25 the figure was 0.517 nM; with B26, 0.491 nM.
As for B27, the figure is 0.659 nM; as for B28, 0.61 nM; as for B29, 0.426 nM.
The molecule B30 yielded a Kd of 0.568 nM.
As to B31, binding was characterised by a dissociation constant (Kd) of 0.688 nM.
Take B32: the Kd was found to be 0.785 nM.
As for B33, the figure is 0.488 nM.
B34 yielded a Kd of 0.649 nM.
Regarding B35, the Kd worked out at 0.48 nM.
In turn, B36 registered a Kd of 0.57 nM.
In turn, B37 showed a Kd of 0.388 nM.
